Reference: article PMC5262456 (Science Advances, 2016)

B1: Spy (ATP-independent periplasmic chaperone), wild type (natural protein, UniProt P77754 24-161, looked up)
chain: ADTTTAAPADAKPMMHHKGKFGPHQDMMFKDLNLTDAQKQQIREIMKGQRDQMKRPPLEERRAMHDIIASDTFDKVKAEAQIAKMEEQRKANMLAHMETQNKIYNILTPEQKKQFNANFEKRLTERPAAKGKMPATAE

Columns and labels:
AUC = target: the molecule itself; assay: AUC
[1] = target: B1; assay: intramolecular paramagnetic relaxation enhancement
[2] = target: B1; assay: SPR
[3] = target: T1, Spy M85C with MTSL spin label (UniProt P77754 24-161, M85C, MTSL spin label on cysteine 85); assay: intermolecular paramagnetic relaxation enhancement
T1 sequence (looked up): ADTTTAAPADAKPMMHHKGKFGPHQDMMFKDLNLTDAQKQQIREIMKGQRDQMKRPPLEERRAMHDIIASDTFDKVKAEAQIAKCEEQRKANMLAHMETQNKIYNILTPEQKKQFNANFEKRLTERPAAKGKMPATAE

[4] = target: T2, Spy T99C with MTSL spin label (UniProt P77754 24-161, T99C, MTSL spin label on cysteine 99); assay: intermolecular paramagnetic relaxation enhancement
T2 sequence (looked up): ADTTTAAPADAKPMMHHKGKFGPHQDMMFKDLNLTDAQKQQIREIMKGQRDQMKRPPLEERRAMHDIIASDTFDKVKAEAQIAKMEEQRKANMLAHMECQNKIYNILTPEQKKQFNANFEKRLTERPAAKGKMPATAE

[5] = target: T3, Spy M53C with MTSL spin label (UniProt P77754 24-161, M53C, MTSL spin label on cysteine 53); assay: intermolecular paramagnetic relaxation enhancement
T3 sequence (looked up): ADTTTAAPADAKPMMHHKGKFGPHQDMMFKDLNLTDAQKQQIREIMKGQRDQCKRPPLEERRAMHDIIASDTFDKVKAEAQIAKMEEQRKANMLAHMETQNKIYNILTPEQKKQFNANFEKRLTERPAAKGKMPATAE

[6] = target: T4, Skp (ATP-independent periplasmic chaperone) (UniProt P0AEU7 21-161)
T4 sequence (looked up): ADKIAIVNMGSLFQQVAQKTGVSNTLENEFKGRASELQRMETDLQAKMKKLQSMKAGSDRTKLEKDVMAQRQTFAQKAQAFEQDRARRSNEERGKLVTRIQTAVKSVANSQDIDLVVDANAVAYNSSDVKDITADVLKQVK

[7] = target: T5, SurA (ATP-independent periplasmic chaperone) (UniProt P0ABZ6 21-428)
T5 sequence (looked up): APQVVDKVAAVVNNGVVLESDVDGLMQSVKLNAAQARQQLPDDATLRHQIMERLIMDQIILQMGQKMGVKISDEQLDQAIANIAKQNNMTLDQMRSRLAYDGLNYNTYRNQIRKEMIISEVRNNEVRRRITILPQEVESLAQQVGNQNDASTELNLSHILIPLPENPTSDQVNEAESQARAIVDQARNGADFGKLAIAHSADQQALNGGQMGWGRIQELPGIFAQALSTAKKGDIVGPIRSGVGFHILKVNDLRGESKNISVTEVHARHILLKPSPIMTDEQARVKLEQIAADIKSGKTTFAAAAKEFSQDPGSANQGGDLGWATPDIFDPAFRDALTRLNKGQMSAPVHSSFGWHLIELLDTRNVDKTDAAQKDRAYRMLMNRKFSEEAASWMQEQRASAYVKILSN

[8] = target: B1; assay: ITC
[9] = target: T5, SurA (ATP-independent periplasmic …); assay: NMR titration
[10] = target: T4, Skp (ATP-independent periplasmic …); assay: NMR titration

## B1
AUC
  stoichiometry N: 2

B2: Im7U T30C with MTSL spin label (natural protein, UniProt Q03708 1-87, looked up)
chain: MELKNSISDYTEAEFVQAAKEIEKENVAACDDVLDVALEHFVKITEHPDGTDLIYYPSDNRDDSPEGIVKEIKEWRAANGKPGFKQG
modifications: MTSL spin label on cysteine 30
[1]
  binding result: binds

B3: Im7U T11C with MTSL spin label (natural protein, UniProt Q03708 1-87, looked up)
chain: MELKNSISDYCEAEFVQAAKEIEKENVAATDDVLDVALEHFVKITEHPDGTDLIYYPSDNRDDSPEGIVKEIKEWRAANGKPGFKQG
modifications: MTSL spin label on cysteine 11
[1]
  binding result: binds

B4: Im7, wild type, full length (natural protein, UniProt Q03708 1-87, looked up)
chain: MELKNSISDYTEAEFVQLLKEIEKENVAATDDVLDVLLEHFVKITEHPDGTDLIYYPSDNRDDSPEGIVKEIKEWRAANGKPGFKQG
[2]
  Kd: 20.3 ± 3.2 µM
[3]
  binding result: binds
[4]
  binding result: binds
[5]
  binding result: binds
[6]
  Kd: 66 µM
[7]
  Kd: 50 µM

B5: Im7 L18A L19A L37A (Im7U) (natural protein, UniProt Q03708 1-87, looked up)
chain: MELKNSISDYTEAEFVQAAKEIEKENVAATDDVLDVALEHFVKITEHPDGTDLIYYPSDNRDDSPEGIVKEIKEWRAANGKPGFKQG
[8]
  Kd: 0.327 µM
  dH: 8.9 ± 0.5 kcal/mol
[9]
  binding result: binds
[10]
  binding result: binds
[3]
  binding result: binds
